According to PMC10987633, “Structural basis for RAD18 regulation by MAGEA4 and its implications for RING ubiquitin ligase binding by MAGE family proteins” (The EMBO Journal, 2024):
Residue numbers refer to the chain shown, from its start.

B1: full-length MAGEA4 wild type (purified) (natural protein, human, UniProt P43358 1-317, looked up)
chain: MSSEQKSQHCKPEEGVEAQEEALGLVGAQAPTTEEQEAAVSSSSPLVPGTLEEVPAAESAGPPQSPQGASALPTTISFTCWRQPNEGSSSQEEEGPSTSPDAESLFREALSNKVDELAHFLLRKYRAKELVTKAEMLERVIKNYKRCFPVIFGKASESLKMIFGIDVKEVDPASNTYTLVTCLGLSYDGLLGNNQIFPKTGLLIIVLGTIAMEGDSASEEEIWEELGVMGVYDGREHTVYGEPRKLLTQDWVQENYLEYRQVPGSNPARYEFLWGPRALAETSYVKVLEHVVRVNARVRIAYPSLREAALLEEEEGV
notes: MAGEA4, human, Uniprot P43358, full length; Cloned into PET15C; No removal of the His tag is described; the diGly search database lists 'His-tagged MAGEA4'; also called MAGEA4 WT; FL MAGEA4; source: E. coli BL21star, purified (TALON, SEC)
B2: RAD18 R6BD peptide (residues 340-366) (peptide, UniProt Q9NS91 340-366, looked up)
peptide: SKYRKKHKSEFQLLVDQARKGYKKIAG
notes: also called 27 amino acid peptide corresponding to the RAD18 R6BD; source: synthetic peptide, bought: GenScript

What was measured:
Conditions in all cases: both partners purified
[1] = molecular target: T1, His-tagged full-length RAD18 wild type (human, UniProt Q9NS91 1-495); assay: cross-linking; XL-MS of RAD18/RAD6 incubated with 5x molar excess of full-length MAGEA4 for 1 h at 4 °C before BS3; trypsin, LC-MS/MS
T1 construct: RAD18, RING E3 ubiquitin ligase, human, Uniprot Q9NS91, residues 1-495, full length; Cloned into PET15C; Dimer in the RAD18/RAD6 complex by AUC and mass photometry; also called RAD18 WT; FL RAD18; source: E. coli BL21star; co-expressed with untagged MAGEA4, in cleared lysate (His pull-down); co-expressed with RAD6 and purified as RAD18/RAD6 (TALON, SEC); not shown: His tag, N-terminal, kept
T1 sequence (Q9NS91 whole entry, the tested form may be a part): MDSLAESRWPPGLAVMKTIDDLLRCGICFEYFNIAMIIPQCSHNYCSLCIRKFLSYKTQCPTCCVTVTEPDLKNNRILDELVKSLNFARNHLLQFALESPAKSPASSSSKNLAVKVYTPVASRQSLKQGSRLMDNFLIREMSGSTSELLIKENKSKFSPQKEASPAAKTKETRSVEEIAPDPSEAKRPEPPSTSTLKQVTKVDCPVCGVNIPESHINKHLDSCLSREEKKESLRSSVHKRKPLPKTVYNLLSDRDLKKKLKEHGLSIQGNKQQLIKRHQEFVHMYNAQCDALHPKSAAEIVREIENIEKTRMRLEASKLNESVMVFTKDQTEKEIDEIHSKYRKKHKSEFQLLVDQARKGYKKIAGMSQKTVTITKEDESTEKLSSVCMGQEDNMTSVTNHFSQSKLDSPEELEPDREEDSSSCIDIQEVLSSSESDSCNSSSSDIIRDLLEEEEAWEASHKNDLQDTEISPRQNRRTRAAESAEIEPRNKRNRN

[2] = molecular target: RAD18/RAD6 complex (purified) (human, UniProt Q9NS91 1-495; P63146 1-152, 2:1 RAD18:RAD6 asymmetric dimer as stated; Zn2+ bound (RING, zinc finger); RAD6 paralogue not given, UBE2B inferred from 2YBF); assay: mass photometry; OneMP mass photometer, SEC buffer; RAD18/RAD6, and RAD18/RAD6/MAGEA4 first cross-linked with BS3 (30 min on ice) and separated on an S200 3.2/300 column, peak fraction measured
Sequence of RAD18/RAD6 complex (purified) (Q9NS91 whole entry, chain 1 of 2): as the sequence (Q9NS91 whole entry, the tested form may be a part) above
Sequence of RAD18/RAD6 complex (purified) (B2R503 whole entry, chain 2 of 2, further chain): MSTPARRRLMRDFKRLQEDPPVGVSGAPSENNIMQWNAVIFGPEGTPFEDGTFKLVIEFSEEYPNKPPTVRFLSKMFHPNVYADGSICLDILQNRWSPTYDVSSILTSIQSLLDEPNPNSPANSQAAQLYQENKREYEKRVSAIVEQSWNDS

[3] = molecular target: B1; assay: ITC; RAD18 R6BD peptide at 200 µM titrated into protein at 20 µM; MicroCal ITC200, 25 °C; SEC buffer (100 mM NaCl, 20 mM HEPES pH 7.5, 1 mM TCEP)
[4] = molecular target: RAD6 wild type (purified alone) (human, UniProt P63146 1-152, paralogue not given; UBE2B chosen because the paper's RAD6/R6BD reference structure 2YBF is UBE2B); assay: as above
full-length MAGEA4 M161D = molecular target: T2, full-length MAGEA4 M161D (human, UniProt P43358 1-317, M161D); assay: as above
T2 construct: MAGEA4, human, Uniprot P43358, full length, with M161D; source: E. coli BL21star, purified (TALON, SEC)
T2 sequence (looked up): B1 chain with M161D

| Binder | binding result [1] | stoichiometry N [2] | Kd [3] [nM] | Kd [4] [µM] | Kd (full-length MAGEA4 M161D) [nM] |
| --- | --- | --- | --- | --- | --- |
| B1 | binds | 1 MAGEA4 per RAD18/RAD6 complex | – | – | – |
| B2 | – | – | 405 | 25.3 | 1660 |
